# Laboratory results from article PMC11891784, “Reversible enzyme-catalysed NAD^+/NADH electrochemistry” (Chemical Science, 2025).
# Substrate: NC(=O)c1ccc[n+]([C@@H]2O[C@H](COP(=O)(O)OP(=O)(O)OC[C@H]3O[C@@H](n4cnc5c(N)ncnc54)[C@H](O)[C@@H]3O)[C@@H](O)[C@H]2O)c1
# Test: mediated catalytic cyclic voltammetry
# Type: biochemical, Cupriavidus necator
# Conditions: methyl viologen 60 μM as electron donor, 50 mM phosphate pH 7.5, 25 °C, N2, FdsBG 0.34 μM, turnover number calculated from simulated rate constant and Km
protein,measurement,value
"FdsBG (subcomplex of formate dehydrogenase FdsDABG) (Cupriavidus necator H16) (protein, FdsBG subcomplex without FdsA and FdsD; FdsB 55 kDa (FMN, [4Fe-4S]) and FdsG 19 kDa ([2Fe-2S]); 74 kDa in total; expressed and purified by a published procedure; with NAD-dependent formate dehydrogenase gamma subunit) MITITTIFVPRDSTALALGADDVARAIAREAAARNEHVRIVRNGSRGMFWLEPLVEVQTGAGRVAYGPVSAADVPGLFDAGLLQGGEHALSQGVTEEIPFLKQQERLTFARVGITDPLSLDDYRAHEGFAGLERALAMQPAEIVQEVTDSGLRGRGGAAFPTGIKWKTVLGAQSAVKYIVCNADEGDSGTFSDRMVMEDDPFMLIEGMTIAALAVGAEQGYIYCRSEYPHAIAVLESAIGIANAAGWLGDDIRGSGKRFHLEVRKGAGAYVCGEETALLESLEGRRGVVRAKPPLPALQGLFGKPTVINNVISLATVPVILARGAQYYRDYGMGRSRGTLPFQLAGNIKQGGLVEKAFGVTLRELLVDYGGGTRSGRAIRAVQVGGPLGAYLPESRFDVPLDYEAYAAFGGVVGHGGIVVFDETVDMAKQARYAMEFCAIESCGKCTPCRIGSTRGVEVMDRIIAGEQPVKHVALVRDLCDTMLNGSLCAMGGMTPYPVLSALNEFPEDFGLASNPAKAA",Km,1.2(1) mM
same,kcat,2400 s⁻¹
